Assay [1] addresses HAFib3 (Fib3 prey fragment with an N-terminal hemagglutinin tag) (human) (UniProt Q12805). In words: ELISA; HAFib3 (250 ng/ml) captured on plate-bound anti-HA antibody; a range of concentrations of CFH678 (H or Y) in PBS, overnight at 4°C; detected with goat anti-CFH and HRP secondary antibody at 450 nm; background without HAFib3 subtracted, 8 replicates; one-site specific binding fit (GraphPad Prism).

The target of assay [2] is CFH SCR7 bait, 402H variant (human). Put plainly: two-hybrid; quantitative βGal assay in selective liquid culture with CPRG substrate, Miller Units; five independent yeast clones for each bait.
Sequence of CFH SCR7 bait, 402H variant (human) (P08603 19-1231, change not shown): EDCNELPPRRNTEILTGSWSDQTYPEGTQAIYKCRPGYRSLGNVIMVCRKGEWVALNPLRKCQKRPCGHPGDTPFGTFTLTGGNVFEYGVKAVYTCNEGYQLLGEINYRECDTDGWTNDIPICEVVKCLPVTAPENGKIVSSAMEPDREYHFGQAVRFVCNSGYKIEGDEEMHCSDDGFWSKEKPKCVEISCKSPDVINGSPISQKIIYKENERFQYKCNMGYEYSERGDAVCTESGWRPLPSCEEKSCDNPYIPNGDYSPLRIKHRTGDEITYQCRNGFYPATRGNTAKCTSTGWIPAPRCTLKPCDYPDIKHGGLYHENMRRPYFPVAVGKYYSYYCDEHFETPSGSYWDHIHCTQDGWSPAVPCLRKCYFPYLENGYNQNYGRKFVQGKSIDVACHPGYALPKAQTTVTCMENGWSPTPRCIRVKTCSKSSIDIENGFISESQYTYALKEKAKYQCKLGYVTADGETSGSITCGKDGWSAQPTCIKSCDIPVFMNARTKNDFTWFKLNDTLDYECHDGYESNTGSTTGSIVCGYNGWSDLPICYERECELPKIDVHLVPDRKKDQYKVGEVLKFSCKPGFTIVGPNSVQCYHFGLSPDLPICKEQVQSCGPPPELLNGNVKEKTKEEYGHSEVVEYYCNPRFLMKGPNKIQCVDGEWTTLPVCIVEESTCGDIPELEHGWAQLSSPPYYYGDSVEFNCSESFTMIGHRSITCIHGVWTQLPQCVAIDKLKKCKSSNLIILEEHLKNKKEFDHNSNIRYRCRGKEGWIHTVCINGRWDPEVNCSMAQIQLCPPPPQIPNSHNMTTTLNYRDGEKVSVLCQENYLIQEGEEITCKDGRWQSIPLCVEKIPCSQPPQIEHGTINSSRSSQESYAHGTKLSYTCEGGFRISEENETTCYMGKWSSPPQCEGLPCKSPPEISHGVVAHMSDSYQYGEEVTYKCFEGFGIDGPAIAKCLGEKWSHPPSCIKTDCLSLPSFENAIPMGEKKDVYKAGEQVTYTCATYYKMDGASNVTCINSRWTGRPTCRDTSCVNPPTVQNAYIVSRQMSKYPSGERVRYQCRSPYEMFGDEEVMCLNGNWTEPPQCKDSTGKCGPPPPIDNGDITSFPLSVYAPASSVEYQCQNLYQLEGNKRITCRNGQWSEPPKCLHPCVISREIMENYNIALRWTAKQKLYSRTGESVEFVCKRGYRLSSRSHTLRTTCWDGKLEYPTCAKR

A word on the Kd: it is the equilibrium constant for the complex coming apart. “Recombinant CFH domains 6-8, 402H variant (CFH678-H) (domain or fragment)” showed an equilibrium dissociation constant (Kd) in assay [1] of 134 nM.

On to “Recombinant CFH domains 6-8, 402Y variant (CFH678-Y) (domain or fragment)”, for which the Kd in assay [1] turned out to be 197 nM.

B1: Fib3 prey fusion protein from the Y2H screen (EFEMP1/Fibulin 3 residues 289-493) (domain or fragment)
chain: RLNCEDIDECRTSSYLCQYQCVNEPGKFSCMCPQGYQVVRSRTCQDINECETTNECREDEMCWNYHGGFRCYPRNPCQDPYILTPENRCVCPVSNAMCRELPQSIVYKYMSIRSDRSVPSDIFQIQATTIYANTINTFRIKSGNENGEFYLRQTSPVSAMLVLVKSLSGPREHIVDLEMLTVSSIGTFRTSSVLRLTIIVGPFSF
In turn, B1 had a higher βGal activation than with CFH-Y in assay [2] of 60%.
